Measured values taken from the supplement of paper PMC7125110.
± gives the standard error. Fewer inactive variants are shown than the library holds.

B1: glmS ribozyme (parent)
chain: AUAAAAGCGCCAGAACUACAGAAAUGUAGUUGACGAGGAGGAGGUUUAUCGAAUUUUCGGCGGAUGCCUCCAAA

Legend:
Settings in all cases: with glucosamine-6-phosphate
glucosamine-6-phosphate [1] = variants of: B1; experiment: self-cleavage kobs at 40 uM GlcN6P; higher = faster cleavage; RNA array
Outline: (§1)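 Glucosamine-6-phosphate in HEPES/KCl/Mg(OAc)2 buffer, at 40 μM to 10 mM, was flowed over barcoded ribozyme variants transcribed in situ by E. coli RNA polymerase on sequenced MiSeq chips. Tracking was through a hybridised Cy3 probe at 37 °C. kobs, kcat and KM came from exponential decay fits and weighted Michaelis–Menten fits of normalised per-tile medians.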

glucosamine-6-phosphate [2] = variants of: B1; experiment: self-cleavage kobs at 2500 uM GlcN6P; higher = faster cleavage; RNA array
Outline: as §1

glucosamine-6-phosphate [3] = variants of: B1; experiment: self-cleavage kobs at 10000 uM GlcN6P; higher = faster cleavage; RNA array
Outline: as §1

glucosamine-6-phosphate [4] = variants of: B1; experiment: self-cleavage kobs at 160 uM GlcN6P; higher = faster cleavage; RNA array
Outline: as §1

glucosamine-6-phosphate [5] = variants of: B1; experiment: self-cleavage kobs at 640 uM GlcN6P; higher = faster cleavage; RNA array
Outline: as §1

Row | Variant | self-cleavage kobs at 40 uM GlcN6P (glucosamine-6-phosphate [1]) | self-cleavage kobs at 2500 uM GlcN6P (glucosamine-6-phosphate [2]) | self-cleavage kobs at 10000 uM GlcN6P (glucosamine-6-phosphate [3]) | self-cleavage kobs at 160 uM GlcN6P (glucosamine-6-phosphate [4]) | self-cleavage kobs at 640 uM GlcN6P (glucosamine-6-phosphate [5])
1 | AUAAAAACGCCAGAACUACAGAAAUGUACUUGACGAGGAGGAGGUUUAUCGAAUUUUCGGCGGAUGCCUCCAAA [G7A G29C] | < 1e-05 s⁻¹ | < 1e-05 s⁻¹ |  |  | 
2 | AUAAAAGCGCCGCAACUACAGAAAUGUAGUUUACGAGGAAGAGGUUUAUCGAAUUUUCGGCGGCUGCCUCCAAA [A12G G13C G32U G40A A64C] | < 1e-05 s⁻¹ |  |  |  | 
3 | AUAAAAGCGCCAGAGCUACAGAAAUGUAGUUGACGAAGCGGAGGUUUAUCGAAUUUUCGGUGGAUGCCGCCAAA [A15G G37A A39C C61U U69G] | < 1e-05 s⁻¹ |  |  |  | 
4 | AUAAAAGCGCCAGAACUACAGAAAUGUAGUUUACGAGGAGGAGGUUUAUCGCAUGUUCGGUGGAUGCCUCCAAA [G32U A52C U55G C61U] | < 1e-05 s⁻¹ |  | < 1e-05 s⁻¹ |  | 
5 | AUAAAAGCGCCGGAACUACAGAAAUGUAGUUGACGAGGAGGAGGUUUAUCGAAUUUACGGCGGAUGCCUCCAAA [A12G U57A] | < 1e-05 s⁻¹ |  | 4.27e-05 ± 9.1e-06 s⁻¹ |  | 
6 | AUAAAAGCGCCAGAACUACAGAAAUGUAGUUGACGAGGAGGAGGUUUAUCGAAUUUUCGGCGGAUACCUACAAA [G66A C70A] | 8.27e-05 ± 1.4e-05 s⁻¹ | 0.00036 ± 8.5e-05 s⁻¹ | 0.000947 ± 0.00015 s⁻¹ | 7.28e-05 ± 2.8e-05 s⁻¹ | 0.000708 ± 0.00013 s⁻¹
7 | AUAAACGCGCCAGAACUACAGAAAUGUAGUUGACGAGGAGGACGUUUAUCGAAUUUUCGGCGGAUGCCUCCAAA [A6C G43C] | < 1e-05 s⁻¹ |  | < 1e-05 s⁻¹ | < 1e-05 s⁻¹ | < 1e-05 s⁻¹
8 | AUAAAAGCGCCAGAACUACAGAAAUGUAAUUGACGAGGAGGAGGUUUGUCGAAUUUUCGGCGGAUGCCUCCAAA [G29A A48G] | < 1e-05 s⁻¹ |  |  | < 1e-05 s⁻¹ | < 1e-05 s⁻¹
9 | AUAAAAGUGCCAGAAUUACAGAAAUGUAGUUGACGAGGAGGAGGUUUAUCGGAUUUUCGGCGGAUGCCUCCAAA [C8U C16U A52G] | < 1e-05 s⁻¹ |  |  |  | 
10 | AUAAAAGCGCCAGAACUACAGAAAUGUAGUUGACGCGGAGUAGCUUUAUCGAAUGCUCGGGGGAUGCCUCCAAA [A36C G41U G44C U55G U56C C61G] | < 1e-05 s⁻¹ |  |  |  | 
11 | AUAAAAGCGCCAGAUCUACAGAAAUGUACUUGACGAGGGGGAGGUUUAUCGAAUUUUCGGCGGAUGCCUCCAAA [A15U G29C A39G] | 6.29e-05 ± 1.7e-05 s⁻¹ |  | 0.00376 ± 0.0005 s⁻¹ |  | 
12 | AUAAAAACGCCAGAACUACAGAAAUGUAGUUGACGAGGAGGAGGUUUAUCGAAUUUUCGGCGGAUGUCUCCAAA [G7A C67U] | < 1e-05 s⁻¹ |  |  | < 1e-05 s⁻¹ | < 1e-05 s⁻¹
13 | AUAAAAGCGCCAGAACUACAGAAAUGUAGUUGACGAGGAGGAGGUUUAUCUAAUUUCCGGCGGAUGCCUCCAAA [G51U U57C] | < 1e-05 s⁻¹ |  | < 1e-05 s⁻¹ |  | < 1e-05 s⁻¹
14 | AUAAAAGCGCCAGAACUACAGAAAUGUAGUUCACAAGGAGGAGGUUUUUCGUACUUUCGGCGGAUGUCUCCAAA [G32C G35A A48U A52U U54C C67U] | < 1e-05 s⁻¹ |  |  | < 1e-05 s⁻¹ | < 1e-05 s⁻¹
15 | AUAAAAGCGCCAGAACUACAGAAAUGUAGUUGACGAGGAGGAGGUUUAUCGAAUUGUCGGCUUAUGCCUCCAAA [U56G G62U G63U] | < 1e-05 s⁻¹ |  | < 1e-05 s⁻¹ |  | 
16 | AUAAAAGCUCCAGAACUACAGAAAUGUAGUUGUCGAGGAGGAGGUUUAUCGUAUUGUCGGCGGAUGCCUCCAAA [G9U A33U A52U U56G] | < 1e-05 s⁻¹ |  |  |  | 

Row | Variant | self-cleavage kobs at 40 uM GlcN6P (glucosamine-6-phosphate [1]) | self-cleavage kobs at 2500 uM GlcN6P (glucosamine-6-phosphate [2]) | self-cleavage kobs at 10000 uM GlcN6P (glucosamine-6-phosphate [3]) | self-cleavage kobs at 160 uM GlcN6P (glucosamine-6-phosphate [4]) | self-cleavage kobs at 640 uM GlcN6P (glucosamine-6-phosphate [5])
17 | AUAAAAGCGCCAGAACUACAGAAAUGUAUUUGACUAGGAGGAGGUUUAUCGAAUUUUCGGCGGAUGCCUUCAAA [G29U G35U C70U] | < 1e-05 s⁻¹ | < 1e-05 s⁻¹ |  |  | 
18 | AUAAAAGCGCCAGAACUACAGAAAUGUAGUUGAAGAGGAGGAGGUUUAUCGAAUUUUCGGAGUAUGCCUCCAAA [C34A C61A G63U] | < 1e-05 s⁻¹ |  | < 1e-05 s⁻¹ |  | 
19 | AUAAAAGCGCCAGAACUACAGAAAUGUAGUUGACGAGGAGGAUGUAGAUCGAAUUUUCGGCGGAUGCCUGCAAA [G43U U46A U47G C70G] | < 1e-05 s⁻¹ | < 1e-05 s⁻¹ | < 1e-05 s⁻¹ |  | < 1e-05 s⁻¹
20 | AUAAAAACGCCAGAACUACAGAAAUGUAGUUGACGAGGAGAAGGCUUAACGAAUUUUCGGCGGAUGCCUCCAAA [G7A G41A U45C U49A] | < 1e-05 s⁻¹ |  |  |  | 
21 | AUAAAAGCGCCAGAACUACAGAAAUGUAGUUGACGAGGAUGAGAUUUAUCGAAUUUUCGGCGGAUGCCUCCAAA [G40U G44A] | < 1e-05 s⁻¹ |  | < 1e-05 s⁻¹ | < 1e-05 s⁻¹ | 
22 | AUAAAAGCGCCAGAUCUACAGAAAUGUAGUUGACGACUAGGAGGUUUAUCGAAUUUUCGGCGGAUGCCUCCAAA [A15U G37C G38U] | < 1e-05 s⁻¹ |  |  |  | 
23 | AUAAAGGCGCCAGAACUACAGAAAUGUAGUUGACGCGGAGGAGGUUUAUCUAAUUUUCGGCGGAUGCCUCCAAA [A6G A36C G51U] | < 1e-05 s⁻¹ |  | < 1e-05 s⁻¹ |  | 
24 | AUAAAAGCGCCAGAACUACAGAAAUGUAUUUGACGAGGAGGAGGUUUAUCGAAUGUUCGGCGGAUGCCUCCAAA [G29U U55G] | 4.62e-05 ± 1.1e-05 s⁻¹ | 0.00177 ± 0.00029 s⁻¹ | 0.00239 ± 0.0003 s⁻¹ |  | 0.000282 ± 5.3e-05 s⁻¹
25 | AUAAAAGAGCCAGAACUACAGAAAUGUAGUCGACGAGGAAGCGGUUUAUCGAAUUUUCGGCGGAAACCUCCAAA [C8A U31C G40A A42C U65A G66A] | < 1e-05 s⁻¹ |  |  |  | 
26 | AUAAAAGCGCCAGAACUACAGAAAUGUAGUUGACGAGGAGGAGGUUUGUGGAAUUUUCGGGGGAUGCCUCCAAA [A48G C50G C61G] | 0.000172 ± 6.6e-05 s⁻¹ |  | 0.000127 ± 3.7e-05 s⁻¹ |  | 
27 | AUAAAAGCGCCAGAACUACAGAAAUGUAGUUGACGAGGAGGAGGUUUUUCGAAUUUUCGACGGAUGCCUCCAAA [A48U G60A] | < 1e-05 s⁻¹ | < 1e-05 s⁻¹ | < 1e-05 s⁻¹ | < 1e-05 s⁻¹ | < 1e-05 s⁻¹
28 | AUAAAAGGGCCAGAACUACAGAAAUGUAGUUGACGAGGAGGAGGUUUAUCGAAUUUUCGGCGGAUGCCUACAAA [C8G C70A] | < 1e-05 s⁻¹ | < 1e-05 s⁻¹ | < 1e-05 s⁻¹ |  | 
29 | AUAAAAGCGCCAGAACUACAGAAAUGUAGUUGCCGAGGAGGCGGUUUAUCGAAUUUUCGGCGGAUGCCUCCAAA [A33C A42C] | < 1e-05 s⁻¹ |  | < 1e-05 s⁻¹ | < 1e-05 s⁻¹ | < 1e-05 s⁻¹
30 | AUAAAUGCGCCACAAAUACAGAAAUGUAGUUGACGAGGAGGAGGGUUAUCGAAUUUUCGGCGGAUGCCUCCAAA [A6U G13C C16A U45G] | < 1e-05 s⁻¹ |  |  |  | 
31 | AUAAAAGCUCCAGAACUACAGAAAUGUAGUUGACGAGGAGGAGGUUUAUCGAAUUUUCUGCGGAUGCCUCCAAA [G9U G59U] | < 1e-05 s⁻¹ |  | < 1e-05 s⁻¹ | < 1e-05 s⁻¹ | 
